Drawing on patent publication US20190032032A1, this text covers mean 50% inhibitory concentration (IC50) of HIV-1 viral particle production in MT-4 cells, p24 ELISA for one substance.

For the assay, the target named is HSP90 (heat shock protein 90) (human (endogenous in the human Huh7.5-derived JFH-1 cell line)) (UniProt P07900). The experiment in a line: cell-based or functional assay.

The substance “PEP1 peptide (hTERT-derived 16mer peptide, 611-…-626)” came in with a mean 50% inhibitory concentration (IC50) of HIV-1 viral particle production in MT-4 cells, p24 ELISA of 0.85 µM.
